# Source: publication PMC7717579, “Phosphoregulation of HORMA domain protein HIM-3 promotes asymmetric synaptonemal complex disassembly in meiotic prophase in Caenorhabditis elegans” (PLoS Genetics, 2020)
# Non-standard residues stand in square brackets, D forms with d. No end group written: not given here. pY = N[C@@H](Cc1ccc(OP(=O)(O)O)cc1)C(=O)O
# Target: T1, HTP-2 protein (full length) (C. elegans)
# T1 construct: HTP-2, HORMA domain protein of the meiotic chromosome axis, C. elegans, full length; also called HTP-2 proteins
# Assay: fluorescence polarisation; 50 nM FITC peptide with various concentrations of HTP-2; 20 mM Tris pH 7.5, 300 mM NaCl, 10% glycerol, 1 mM DTT, 0.1% NP-40; 1 hour at room temperature; 384-well plates; single-site binding model
# Details: both partners purified
row,Kd [µM],Binder
1,5.8,"RDSPYGLSQGITKKNKD (also: fluorescein (FITC) conjugated, site not given here) [HIM-3 closure motif peptide, unmodified (wild type), fluorescein-tagged]"
2,16.1,"RDSP[pY]GLSQGITKKNKD (also: fluorescein (FITC) conjugated, site not given here) [HIM-3 closure motif peptide phosphorylated at Tyr279, fluorescein-tagged]"
3,11.3,"RDSPYGLAQGITKKNKD (also: fluorescein (FITC) conjugated, site not given here) [HIM-3 closure motif peptide with the S282A substitution, fluorescein-tagged]"
